According to article PMC6789141, “ZC3H18 specifically binds and activates the BRCA1 promoter to facilitate homologous recombination in ovarian cancer”:

Target: T1, SFB-ZC3H18 (human, UniProt Q86VM9 1-953)
T1 sequence: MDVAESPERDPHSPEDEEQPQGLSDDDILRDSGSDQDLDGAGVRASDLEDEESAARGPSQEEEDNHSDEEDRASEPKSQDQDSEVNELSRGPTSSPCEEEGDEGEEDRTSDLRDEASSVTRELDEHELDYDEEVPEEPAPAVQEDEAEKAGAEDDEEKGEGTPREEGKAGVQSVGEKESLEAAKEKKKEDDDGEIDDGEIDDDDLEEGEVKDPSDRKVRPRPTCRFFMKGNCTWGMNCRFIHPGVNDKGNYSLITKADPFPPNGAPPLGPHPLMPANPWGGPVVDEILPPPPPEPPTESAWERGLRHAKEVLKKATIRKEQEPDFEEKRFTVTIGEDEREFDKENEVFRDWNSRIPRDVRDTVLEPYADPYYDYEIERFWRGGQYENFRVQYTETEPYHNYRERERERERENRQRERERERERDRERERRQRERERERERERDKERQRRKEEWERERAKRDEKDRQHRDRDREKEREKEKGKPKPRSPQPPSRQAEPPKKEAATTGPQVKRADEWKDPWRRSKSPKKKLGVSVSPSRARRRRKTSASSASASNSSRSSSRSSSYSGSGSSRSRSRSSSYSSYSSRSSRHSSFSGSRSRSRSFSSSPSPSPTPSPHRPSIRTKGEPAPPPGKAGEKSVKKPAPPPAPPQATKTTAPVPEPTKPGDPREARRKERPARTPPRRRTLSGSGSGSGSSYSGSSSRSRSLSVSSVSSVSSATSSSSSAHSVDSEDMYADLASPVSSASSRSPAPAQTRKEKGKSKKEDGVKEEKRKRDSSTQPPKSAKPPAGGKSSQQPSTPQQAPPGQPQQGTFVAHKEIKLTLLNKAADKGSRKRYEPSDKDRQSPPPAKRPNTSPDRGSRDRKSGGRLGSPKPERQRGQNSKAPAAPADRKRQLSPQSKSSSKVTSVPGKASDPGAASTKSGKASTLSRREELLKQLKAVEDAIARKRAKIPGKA
Assay: EMSA; cold competition and anti-S-tag supershift confirm; EMSA: 20 mM Tris-HCl pH 8.0, 50 mM NaCl, 1 mM MgCl2, 5 mg/ml BSA, 1 mM DTT, 20 min at room temperature; 5% native gel, 0.25x TBE, 4 °C
Details: protein: recombinant; C-terminal 6xHis; label: 32P 5' end; duplex of complementary 50-mers

B1: E2FA/BWT (dsDNA)
DNA 1: TAGCCCCTTGGTTTCCGTGGCAACGGAAAAGCGCGGGAATTACAGATAAA
DNA 2: TTTATCTGTAATTCCCGCGCTTTTCCGTTGCCACGGAAACCAAGGGGCTA
B1: binds.
